According to patent publication US20030180895A1:
Where two headings read alike, the source gives them in different places.

Experiments:
Test in all cases: cell-based or functional assay
[1] = target: Bacillus subtilis xylanase A mutant Y166F (Bacillus subtilis) (UniProt P18429)
[2] = target: Bacillus subtilis wild type xylanase A (Bacillus subtilis) (UniProt P18429)
[3] = target: Bacillus subtilis xylanase A mutant N29Y (Bacillus subtilis) (UniProt P18429)
[4] = target: Bacillus subtilis xylanase A mutant N32K (Bacillus subtilis) (UniProt P18429)
[5] = target: Bacillus subtilis xylanase A mutant N29K (Bacillus subtilis) (UniProt P18429)
[6] = target: Bacillus subtilis xylanase A mutant D11K (Bacillus subtilis) (UniProt P18429)
[7] = target: Bacillus subtilis xylanase A mutant S31K (Bacillus subtilis) (UniProt P18429)
[8] = target: Bacillus subtilis xylanase A mutant G120Y (Bacillus subtilis) (UniProt P18429)
[9] = target: Bacillus subtilis xylanase A mutant D11Y (Bacillus subtilis) (UniProt P18429)
[10] = target: Bacillus subtilis xylanase A mutant S31Y (Bacillus subtilis) (UniProt P18429)
[11] = target: Bacillus subtilis xylanase A mutant N114D (Bacillus subtilis) (UniProt P18429)
[12] = target: Bacillus subtilis xylanase A mutant N114A (Bacillus subtilis) (UniProt P18429)
[13] = target: Bacillus subtilis xylanase A mutant N17K (Bacillus subtilis) (UniProt P18429)
[14] = target: Bacillus subtilis xylanase A mutant Q175S (Bacillus subtilis) (UniProt P18429)
[15] = target: Bacillus subtilis xylanase A mutant G120N (Bacillus subtilis) (UniProt P18429)
[16] = target: Bacillus subtilis xylanase A mutant N114K (Bacillus subtilis) (UniProt P18429)
[17] = target: Bacillus subtilis xylanase A mutant G120F (Bacillus subtilis) (UniProt P18429)
[18] = target: Bacillus subtilis xylanase A mutant G120D (Bacillus subtilis) (UniProt P18429)
[19] = target: Bacillus subtilis xylanase A mutant D121N (Bacillus subtilis) (UniProt P18429)
[20] = target: Bacillus subtilis xylanase A mutant T124Y (Bacillus subtilis) (UniProt P18429)
[21] = target: Bacillus subtilis xylanase A mutant D121K (Bacillus subtilis) (UniProt P18429)
[22] = target: Bacillus subtilis xylanase A mutant D11W (Bacillus subtilis) (UniProt P18429)
[23] = target: Bacillus subtilis wild type xylanase A (Bacillus subtilis) (UniProt P18429); remark: listed apart in the source
[24] = target: Bacillus subtilis xylanase A mutant G13F (Bacillus subtilis) (UniProt P18429)
[25] = target: Bacillus subtilis xylanase A mutant D11S (Bacillus subtilis) (UniProt P18429)
[26] = target: Bacillus subtilis xylanase A mutant T124K (Bacillus subtilis) (UniProt P18429)
[27] = target: Bacillus subtilis xylanase A mutant Q175E (Bacillus subtilis) (UniProt P18429)

Substance wheat endogenous xylanase inhibitor has a Relative inhibition, % at 1, 26 XIU/ml [1] of 74%, a Relative inhibition, % at 3, 15 XIU/ml [1] of 39% and a Relative inhibition, % at 6, 3 XIU/ml [1] of 22%. It also gave a Relative inhibition, % at 12, 6 XIU/ml [1] of 20%, a Relative inhibition, % at 1, 26 XIU/ml [2] of 75% and a Relative inhibition, % at 3, 15 XIU/ml [2] of 40%. The Relative inhibition, % at 6, 3 XIU/ml [2] was 24%, the Relative inhibition, % at 12, 6 XIU/ml [2] was 20% and the Relative inhibition, % at 1, 26 XIU/ml [3] was 85%. It also gave a Relative inhibition, % at 3, 15 XIU/ml [3] of 49%, a Relative inhibition, % at 6, 3 XIU/ml [3] of 30% and a Relative inhibition, % at 12, 6 XIU/ml [3] of 24%. For the same substance, the Relative inhibition, % at 1, 26 XIU/ml [4] was 82%, the Relative inhibition, % at 3, 15 XIU/ml [4] was 42% and the Relative inhibition, % at 6, 3 XIU/ml [4] was 19%. The Relative inhibition, % at 12, 6 XIU/ml [4] was 14%, the Relative inhibition, % at 1, 26 XIU/ml [5] was 83% and the Relative inhibition, % at 3, 15 XIU/ml [5] was 50%. For the same substance, the Relative inhibition, % at 6, 3 XIU/ml [5] was 30%, the Relative inhibition, % at 12, 6 XIU/ml [5] was 23% and the Relative inhibition, % at 1, 26 XIU/ml [6] was 109%. For the same substance, the Relative inhibition, % at 3, 15 XIU/ml [6] was 112%, the Relative inhibition, % at 6, 3 XIU/ml [6] was 113% and the Relative inhibition, % at 12, 6 XIU/ml [6] was 116%. The Relative inhibition, % at 1, 26 XIU/ml [7] was 77%, the Relative inhibition, % at 3, 15 XIU/ml [7] was 42% and the Relative inhibition, % at 6, 3 XIU/ml [7] was 23%. For the same substance, the Relative inhibition, % at 12, 6 XIU/ml [7] was 23%, the Relative inhibition, % at 1, 26 XIU/ml [8] was 81% and the Relative inhibition, % at 3, 15 XIU/ml [8] was 40%. For the same substance, the Relative inhibition, % at 6, 3 XIU/ml [8] was 18%, the Relative inhibition, % at 12, 6 XIU/ml [8] was 16% and the Relative inhibition, % at 1, 26 XIU/ml [9] was 120%. The Relative inhibition, % at 3, 15 XIU/ml [9] was 114%, the Relative inhibition, % at 6, 3 XIU/ml [9] was 126% and the Relative inhibition, % at 12, 6 XIU/ml [9] was 124%. It also gave a Relative inhibition, % at 1, 26 XIU/ml [10] of 83%, a Relative inhibition, % at 3, 15 XIU/ml [10] of 50% and a Relative inhibition, % at 6, 3 XIU/ml [10] of 27%. It also gave a Relative inhibition, % at 12, 6 XIU/ml [10] of 22%, a Relative inhibition, % at 1, 26 XIU/ml [11] of 84% and a Relative inhibition, % at 3, 15 XIU/ml [11] of 57%. The Relative inhibition, % at 6, 3 XIU/ml [11] was 39%, the Relative inhibition, % at 12, 6 XIU/ml [11] was 29% and the Relative inhibition, % at 1, 26 XIU/ml [12] was 80%. It also gave a Relative inhibition, % at 3, 15 XIU/ml [12] of 49%, a Relative inhibition, % at 6, 3 XIU/ml [12] of 28% and a Relative inhibition, % at 12, 6 XIU/ml [12] of 22%. For the same substance, the Relative inhibition, % at 1, 26 XIU/ml [13] was 88%, the Relative inhibition, % at 3, 15 XIU/ml [13] was 48% and the Relative inhibition, % at 6, 3 XIU/ml [13] was 31%. The Relative inhibition, % at 12, 6 XIU/ml [13] was 26%, the Relative inhibition, % at 1, 26 XIU/ml [14] was 88% and the Relative inhibition, % at 3, 15 XIU/ml [14] was 59%. The Relative inhibition, % at 6, 3 XIU/ml [14] was 30%, the Relative inhibition, % at 12, 6 XIU/ml [14] was 19% and the Relative inhibition, % at 1, 26 XIU/ml [15] was 84%. For the same substance, the Relative inhibition, % at 3, 15 XIU/ml [15] was 49%, the Relative inhibition, % at 6, 3 XIU/ml [15] was 29% and the Relative inhibition, % at 12, 6 XIU/ml [15] was 23%. It also gave a Relative inhibition, % at 1, 26 XIU/ml [16] of 87%, a Relative inhibition, % at 3, 15 XIU/ml [16] of 56% and a Relative inhibition, % at 6, 3 XIU/ml [16] of 33%. For the same substance, the Relative inhibition, % at 12, 6 XIU/ml [16] was 24%, the Relative inhibition, % at 1, 26 XIU/ml [17] was 71% and the Relative inhibition, % at 3, 15 XIU/ml [17] was 35%. For the same substance, the Relative inhibition, % at 6, 3 XIU/ml [17] was 18%, the Relative inhibition, % at 12, 6 XIU/ml [17] was 15% and the Relative inhibition, % at 1, 26 XIU/ml [18] was 84%. For the same substance, the Relative inhibition, % at 3, 15 XIU/ml [18] was 47%, the Relative inhibition, % at 6, 3 XIU/ml [18] was 24% and the Relative inhibition, % at 12, 6 XIU/ml [18] was 18%. It also gave a Relative inhibition, % at 1, 26 XIU/ml [19] of 80%, a Relative inhibition, % at 3, 15 XIU/ml [19] of 36% and a Relative inhibition, % at 6, 3 XIU/ml [19] of 16%. For the same substance, the Relative inhibition, % at 12, 6 XIU/ml [19] was 14%, the Relative inhibition, % at 1, 26 XIU/ml [20] was 101% and the Relative inhibition, % at 3, 15 XIU/ml [20] was 76%. For the same substance, the Relative inhibition, % at 6, 3 XIU/ml [20] was 49%, the Relative inhibition, % at 12, 6 XIU/ml [20] was 33% and the Relative inhibition, % at 1, 26 XIU/ml [21] was 104%. For the same substance, the Relative inhibition, % at 3, 15 XIU/ml [21] was 95%, the Relative inhibition, % at 6, 3 XIU/ml [21] was 85% and the Relative inhibition, % at 12, 6 XIU/ml [21] was 75%. For the same substance, the Relative inhibition, % at 1, 26 XIU/ml [22] was 101%, the Relative inhibition, % at 3, 15 XIU/ml [22] was 88% and the Relative inhibition, % at 6, 3 XIU/ml [22] was 70%. It also gave a Relative inhibition, % at 12, 6 XIU/ml [22] of 50%, a Relative inhibition, % at 1, 26 XIU/ml [23] of 77% and a Relative inhibition, % at 3, 15 XIU/ml [23] of 48%. It also gave a Relative inhibition, % at 6, 3 XIU/ml [23] of 29%, a Relative inhibition, % at 12, 6 XIU/ml [23] of 23% and a Relative inhibition, % at 1, 26 XIU/ml [24] of 104%. For the same substance, the Relative inhibition, % at 3, 15 XIU/ml [24] was 95%, the Relative inhibition, % at 6, 3 XIU/ml [24] was 87% and the Relative inhibition, % at 12, 6 XIU/ml [24] was 84%. It also gave a Relative inhibition, % at 1, 26 XIU/ml [25] of 98%, a Relative inhibition, % at 3, 15 XIU/ml [25] of 81% and a Relative inhibition, % at 6, 3 XIU/ml [25] of 60%. For the same substance, the Relative inhibition, % at 12, 6 XIU/ml [25] was 38%, the Relative inhibition, % at 1, 26 XIU/ml [26] was 110% and the Relative inhibition, % at 3, 15 XIU/ml [26] was 92%. It also gave a Relative inhibition, % at 6, 3 XIU/ml [26] of 73%, a Relative inhibition, % at 12, 6 XIU/ml [26] of 57% and a Relative inhibition, % at 1, 26 XIU/ml [27] of 87%. For the same substance, the Relative inhibition, % at 3, 15 XIU/ml [27] was 59%, the Relative inhibition, % at 6, 3 XIU/ml [27] was 40% and the Relative inhibition, % at 12, 6 XIU/ml [27] was 31%.
